# Results: publication doi:10.1101/270363 (bioRxiv, 2018)
# Biological target: F-actin (filamentous actin) (rabbit, UniProt P68135 1-377)
# Experiment: co-sedimentation
row,Binder,binding result
1,CC-WH2 fragment of nPIST (1st - 267th aa) (domain or fragment) MSAGGPCPAGAGGGPGGSSCPVGVSPGGVSMFRWLEVLEKEFDKAFVDVDLLLGEIDPDQADITYEGRQKMTSLSSCFAQLCHKAQTVSQINHKLEAQLVDLRSELTETQAEKVVLEKEVHEQLLQLHSTQLQLHAKTGQSVDSGAIKAKLSVHSVEDLERELEANKTEKVKEARLEAEVKLLRKENEALRRHIAVLQAEVYGARLAAKYLDKELAGRVQQIQLLGRDMKGPAHDKLWNQLEAEIHLHRHKTVIRACRGRNDLKRPM,binds
2,CC2 fragment of nPIST (140th - 210th aa) (domain or fragment) QSVDSGAIKAKLSVHSVEDLERELEANKTEKVKEARLEAEVKLLRKENEALRRHIAVLQAEVYGARLAAKY,binds
3,CC1 fragment of nPIST (1st - 138th aa) (domain or fragment) MSAGGPCPAGAGGGPGGSSCPVGVSPGGVSMFRWLEVLEKEFDKAFVDVDLLLGEIDPDQADITYEGRQKMTSLSSCFAQLCHKAQTVSQINHKLEAQLVDLRSELTETQAEKVVLEKEVHEQLLQLHSTQLQLHAKT,binds
4,WH2 fragment of nPIST (200th - 289th aa) (domain or fragment) EVYGARLAAKYLDKELAGRVQQIQLLGRDMKGPAHDKLWNQLEAEIHLHRHKTVIRACRGRNDLKRPMQAPPGHDQDSLKKSQGVGPIRK,binds
